For data set [1], the system named is T1, GST-Z1.
T1 sequence: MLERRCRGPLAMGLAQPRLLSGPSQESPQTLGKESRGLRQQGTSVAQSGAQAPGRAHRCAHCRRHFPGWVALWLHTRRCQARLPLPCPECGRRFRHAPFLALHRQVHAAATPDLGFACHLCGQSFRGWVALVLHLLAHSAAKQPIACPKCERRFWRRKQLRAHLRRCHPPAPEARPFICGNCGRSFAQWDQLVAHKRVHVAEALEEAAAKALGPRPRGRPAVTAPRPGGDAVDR

In data set [2] the test system is T2, GST-Z2-P123.
T2 sequence: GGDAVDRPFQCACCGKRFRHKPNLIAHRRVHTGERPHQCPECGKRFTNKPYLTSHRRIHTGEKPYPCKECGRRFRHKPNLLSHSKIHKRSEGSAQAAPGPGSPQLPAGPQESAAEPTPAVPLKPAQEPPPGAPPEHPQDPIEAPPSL

Data set [3] concerns T3, GST-Z2.
T3 sequence: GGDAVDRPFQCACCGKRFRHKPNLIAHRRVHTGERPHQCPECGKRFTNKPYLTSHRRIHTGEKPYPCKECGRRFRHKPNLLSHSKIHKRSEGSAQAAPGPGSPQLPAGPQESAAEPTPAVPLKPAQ

For data set [4], the system named is T4, GST-Z3.
T4 sequence: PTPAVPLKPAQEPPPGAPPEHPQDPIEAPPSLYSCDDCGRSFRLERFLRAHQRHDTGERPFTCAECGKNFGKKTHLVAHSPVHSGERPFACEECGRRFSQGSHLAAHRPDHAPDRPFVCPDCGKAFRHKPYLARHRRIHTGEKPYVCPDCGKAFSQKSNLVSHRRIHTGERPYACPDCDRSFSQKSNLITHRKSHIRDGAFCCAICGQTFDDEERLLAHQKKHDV

Data set [5] deals with the molecule itself. As to the kind of experiment: Gel shift Multimers, self-association on DNA. As to the method:
Binding reactions (30 ul) contained 0.05 pmole labeled DSR probe, 40 mM KCl, 10 mM HEPES (pH 8.0), 4% Ficoll, 33 ng/ul poly dIdC, 1 mM DTT, 16.7 uM ZnCl_2, and 0.5–10 ug of protein. Binding reactions were incubated for 20 minutes at 37° C., 15 min on ice, and then resolved on 6% native polyacrylamide gels in 0.25×TBE buffer. Gels were dried, exposed to Kodak XAR film at −80° C., and signals were detected by autoradiography. Competition binding reactions were assembled as described above with the addition of 0.5, 5, or 50 pmole of unlabeled double-stranded competitor DNA to the reactions prior to the addition of protein. For time course competition assays, 60 ul binding reactions were assembled and incubated as above. Following the incubation step on ice, 50 pmole of unlabeled DSR competitor DNA was added to the binding reactions and samples where removed at the indicated time points, loaded on a 6% native PAGE gel, and resolved by electrophoresis at 25V until all samples were loaded. After the final sample was loaded, the voltage was increased to 100V and samples were resolved by electrophoresis for an additional 1.5 hours. Signals on the dried gels were quantified on a phosphoimager (BioRad model GS 525). A value for % probe bound was calculated as a ratio of protein-bound probe to total probe (bound and unbound probe) per sample and values were plotted against time. […]

Data set [6] addresses T5, GST-Z2 (RIP60 zinc fingers 6-8 plus part of PRR, GST-Z2-P12) (Homo sapiens, UniProt Q9BWE0 SEQ:1-126).
T5 sequence: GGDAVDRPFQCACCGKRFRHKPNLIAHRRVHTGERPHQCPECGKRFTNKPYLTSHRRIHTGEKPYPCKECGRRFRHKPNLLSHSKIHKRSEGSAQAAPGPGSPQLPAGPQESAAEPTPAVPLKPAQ
As to the kind of experiment: competition; no competition at 1000-fold excess. The conditions noted are these: tags: GST N-terminal. The procedure: (§1) Binding reactions were incubated for 20 minutes at 37° C., 15 min on ice, and then resolved on 6% native polyacrylamide gels in 0.25×TBE buffer. Gels were dried, exposed to Kodak XAR film at −80° C., and signals were detected by autoradiography. Competition binding reactions were assembled as described above with the addition of 0.5, 5, or 50 pmole of unlabeled double-stranded competitor DNA to the reactions prior to the addition of protein. For time course competition assays, 60 ul binding reactions were assembled and incubated as above. Following the incubation step on ice, 50 pmole of unlabeled DSR competitor DNA was added to the binding reactions and samples where removed at the indicated time points, loaded on a 6% native PAGE gel, and resolved by electrophoresis at 25V until all samples were loaded. After the final sample was loaded, the voltage was increased to 100V and samples were resolved by electrophoresis for an additional 1.5 hours. Signals on the dried gels were quantified on a phosphoimager (BioRad model GS 525). A value for % probe bound was calculated as a ratio of protein-bound probe to total probe (bound and unbound probe) per sample and values were plotted against time.
(§2) Binding of the GST-Z2 to the DSR probe was stable in the presence of 1000-fold excess of IBF, SV-AT, or Py-AT competitors, but was competed with 100-fold excess of unlabeled DSR DNA. […]

Data set [7] has as its target T6, GST-Z1 (RIP60 zinc fingers 1-5) (Homo sapiens, UniProt Q9BWE0 SEQ:1-234).
T6 chain: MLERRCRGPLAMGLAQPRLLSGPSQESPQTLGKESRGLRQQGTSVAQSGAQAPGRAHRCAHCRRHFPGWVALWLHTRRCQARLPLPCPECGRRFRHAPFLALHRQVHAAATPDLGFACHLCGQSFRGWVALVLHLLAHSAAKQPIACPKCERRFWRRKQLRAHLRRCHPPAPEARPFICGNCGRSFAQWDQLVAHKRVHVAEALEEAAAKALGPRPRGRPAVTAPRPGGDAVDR
As to the kind of experiment: competition; not significantly competing. The conditions noted are these: tags: GST N-terminal. As to the method: as §1, §2

Data set [8] addresses T7, GST-Z2-P123 (Homo sapiens, UniProt Q9BWE0 SEQ:1-147).
T7 sequence: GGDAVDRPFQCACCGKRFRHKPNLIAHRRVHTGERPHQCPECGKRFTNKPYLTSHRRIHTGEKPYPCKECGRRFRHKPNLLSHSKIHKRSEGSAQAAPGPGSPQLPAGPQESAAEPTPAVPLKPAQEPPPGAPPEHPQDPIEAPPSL
Kind of data set: EMSA; multimers. The conditions noted are these: tags: GST N-terminal; label: 32P; 5' overhangs.

The target in data set [9] is T8, GST-Z2-P1 (Homo sapiens, UniProt Q9BWE0 SEQ:225-337).
T8 sequence: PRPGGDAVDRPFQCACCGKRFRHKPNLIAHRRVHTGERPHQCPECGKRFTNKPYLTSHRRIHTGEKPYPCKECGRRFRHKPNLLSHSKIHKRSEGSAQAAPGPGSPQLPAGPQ
Kind of data set: EMSA; no multimers. The conditions noted are these: tags: GST N-terminal; label: 32P; 5' overhangs.

The target in data set [10] is T5, GST-Z2 (RIP60 zinc fingers 6-8 plus …). Kind of data set: EMSA; competed by 100-fold DSR; more stable than GST-Z1. The conditions noted are these: tags: GST N-terminal; label: 32P; 5' overhangs. The procedure:
(§3) A value for % probe bound was calculated as a ratio of protein-bound probe to total probe (bound and unbound probe) per sample and values were plotted against time.
(§4) Binding of the GST-Z2 to the DSR probe was stable in the presence of 1000-fold excess of IBF, SV-AT, or Py-AT competitors, but was competed with 100-fold excess of unlabeled DSR DNA. […] In contrast, binding of GST-Z3 to the DSR probe was eliminated by a 1000-fold excess of all unlabelled competitors tested. […] In a like manner, the USR was also able to compete for binding of these proteins to the DSR.
(§5) To ascertain if Z1 and Z2 show any differences in binding activity, the stability of Z1 and Z2 complexes with the DSR was examined in competition gel shift assays. Identical amounts of GST-Z1 and GST-Z2 were incubated with ^32P-labeled probe for 20 min, and then a 1000-fold molar excess of unlabeled competitor DSR was added. Samples were removed from the binding reactions at various times thereafter and loaded directly onto non-denaturing gels running at low voltage. After all the samples were loaded, the voltage was increased to 100V for 1 hr. After drying the gels, the signals in the shifted complexes were quantified by phosphoimaging.

Data set [11] concerns the target T6, GST-Z1 (RIP60 zinc fingers 1-5). Kind of data set: EMSA; competed by 100-fold DSR; less stable than GST-Z2. The conditions noted are these: tags: GST N-terminal; label: 32P; 5' overhangs. As to the method: as §3, §4, §5
For data set [12], the target named is T9, GST-Z12 (Homo sapiens, UniProt Q9BWE0 SEQ:1-349).
T9 chain: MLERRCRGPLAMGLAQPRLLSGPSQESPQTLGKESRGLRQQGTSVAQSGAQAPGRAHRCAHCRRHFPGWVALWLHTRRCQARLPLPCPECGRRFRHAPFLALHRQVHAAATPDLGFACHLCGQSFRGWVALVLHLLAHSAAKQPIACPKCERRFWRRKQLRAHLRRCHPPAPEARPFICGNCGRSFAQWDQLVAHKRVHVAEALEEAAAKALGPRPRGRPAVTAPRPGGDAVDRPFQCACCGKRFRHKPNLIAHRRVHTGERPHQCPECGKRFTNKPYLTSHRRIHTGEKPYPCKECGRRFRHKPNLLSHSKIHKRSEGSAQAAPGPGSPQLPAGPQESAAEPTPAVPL
As to the kind of experiment: EMSA; specific. The conditions noted are these: tags: GST N-terminal; label: 32P; 5' overhangs. As to the method:
DSR (50 pmole) was labeled by Klenow fill-in reaction of 5' overhangs in the presence of [α-^32P]-dATP. Other probes were end-labeled with polynucleotide kinase and [γ-^32P]. Binding reactions (30 ul) contained 0.05 pmole labeled DSR probe, 40 mM KCl, 10 mM HEPES (pH 8.0), 4% Ficoll, 33 ng/ul poly dIdC, 1 mM DTT, 16.7 uM ZnCl_2, and 0.5–10 ug of protein. Binding reactions were incubated for 20 minutes at 37° C., 15 min on ice, and then resolved on 6% native polyacrylamide gels in 0.25×TBE buffer. Gels were dried, exposed to Kodak XAR film at −80° C., and signals were detected by autoradiography. Competition binding reactions were assembled as described above with the addition of 0.5, 5, or 50 pmole of unlabeled double-stranded competitor DNA to the reactions prior to the addition of protein. For time course competition assays, 60 ul binding reactions were assembled and incubated as above. […] Signals on the dried gels were quantified on a phosphoimager (BioRad model GS 525). A value for % probe bound was calculated as a ratio of protein-bound probe to total probe (bound and unbound probe) per sample and values were plotted against time. […]

Data set [13] has as its target T9, GST-Z12. As to the kind of experiment: competition; USR competes. The conditions noted are these: tags: GST N-terminal. The procedure: as §1, §2
Data set [14] deals with T5, GST-Z2 (RIP60 zinc fingers 6-8 plus …). As to the kind of experiment: competition; USR competes for binding to DSR. The conditions noted are these: tags: GST N-terminal. The procedure: as §1, §2
In data set [15] the target is T6, GST-Z1 (RIP60 zinc fingers 1-5). As to the kind of experiment: EMSA; footprinting and gel shift; unstable binding. The conditions noted are these: tags: GST N-terminal.

As for casein kinase II, the “phosphorylation in vitro (32P-ATP, SDS gel, autoradiography)” value was “neither GST-Z1 nor GST-Z3 were phosphorylated to any great degree” in [1]; “Both GST-Z2 and GST-Z2P123 were phosphorylated” in [2]; “Only the GST-Z2 polypeptide, which contains the casein kinase II phosphorylation domain was phosphorylated” in [3]; “neither GST-Z1 nor GST-Z3 were phosphorylated to any great degree” in [4]. Also, the “phosphorylation in vitro with and without DNA” value in data set [3] is “GST-Z2 polypeptide was phosphorylated by casein kinase II in the absence of DNA. However, the extent of phosphorylation increased in the presence of the double stranded DRS oligo, the linearized plasmid pCH127 and the supercoiled pCH127”.

B1: GST-Z2 (other)
chain: GGDAVDRPFQCACCGKRFRHKPNLIAHRRVHTGERPHQCPECGKRFTNKPYLTSHRRIHTGEKPYPCKECGRRFRHKPNLLSHSKIHKRSEGSAQAAPGPGSPQLPAGPQESAAEPTPAVPLKPAQ
notes: also called GST-Z2(P12); GST-Z2-P12; not shown: glutathione-S-transferase (GST) purification tag, 26 kD, encoded by pGEX-2T (Pharmacia Biotech), at the amino terminus
In the case of B1, the binding result in data set [5] is reported as “binds”.

B2: IBF (OCH13/OCH14) (dsDNA)
DNA 1: GATCCGGGAAGGCGGGCGCTGGGGGCGCTGCGGCGCTGCGCTCCACCT
DNA 2: GATCTAGGTGGAGCGCAGCGCCGCAGCGCCCCCAGCGCCCGCCTTCCCG
Take B2: the binding result in [6] and in [7] was “no binding” throughout.

B3: DSR (OCH7/OCH8) (dsDNA)
DNA 1: GATCTTTTATTATTATTATTAGTTCG
DNA 2: GATCCGAACTAATAATAATAATAAAA
In the case of B3, the binding result in data set [8], in data set [9], in data set [10], in data set [11] and in [12] was “binds” each time.

B4: USR (OCH39/OCH40) (dsDNA)
DNA 1: GATCTTAACAGTAATAATAAATATCT
DNA 2: GATCAGATATTTATTATTACTGTTAA
For B4, the binding result in data set [13], in data set [14] and in data set [15] was “binds” in each case.

B5: Py-AT (OCH37/OCH38) (dsDNA)
DNA 1: CTGTTTTTTTTAGTATTAAGC
DNA 2: GCTTAATACTAAAAAAAACAG
Regarding B5, the binding result in [6] is “no binding”.

Source of the values: patent publication US6903077, “Methods and products for delivering nucleic acids” (University of Vermont and State Agricultural College).
